Results: US20050182242A1, “Global analysis of protein activities using proteome chips” (priority 2001, published 2005)

Assays:
PI(3)P liposomes = assay: Yeast proteome chip probed with PI(3)P liposomes; details: liposome binding signal on yeast proteome chip, Cy3-streptavidin detection
six different liposomes = assay: Reverse membrane assay: proteins spotted on nitrocellulose probed with six liposomes; assay type: binding; details: HRP-conjugated streptavidin
Method: B. A reverse assay was carried out to test for protein-lipid interactions. The proteins were prepared and spotted onto nitrocellulose filters in a dilution series and probed with the six different liposomes. As a control, the six liposomes were also added to the BSA-blocked membrane. After extensive washing, the bound liposomes were detected using an HRP-conjugated streptavidin and an ECL kit.
C. Linear correlation between the binding signals and the amounts of Rim15p in a membrane assay. When liposome-binding signals of Rim15p from the membrane assay (FIG. 4B) were plotted against the concentration gradient of the spotted Rim15p, the binding signals of PI(4)P, PI(3,4)P2, PI(3)P, and PI(4,5)P2 correlated linearly with the amounts of Rim15p.
Therefore, six proteins, i.e., Rim15p, Eno2p, Hxk1p, Sps1p, Yg1059wp, and Gcn2p, were further tested for phosphoinositol binding using two types of standard assays (Williamson, 2000, Nat. Struct Biol. 7(10):834-7). For Rim15p, Eno2p, and Hxk1p, PI(4,5)P2 liposomes were first adhered to a nitrocellulose membrane, which was then blocked by BSA; different amounts of the GST fusion proteins and a GST control were used to probe the membrane, and bound proteins were detected using anti-GST antibodies. […] The bound liposomes were detected using a horseradish peroxidase (“HRP”)-conjugated streptavidin.

PI(4,5)P2 liposomes = assay: Yeast proteome chip probed with PI(4,5)P2 liposomes; details: liposome binding signal on yeast proteome chip, Cy3-streptavidin detection
PI(3,4,5)P3 liposomes = assay: Yeast proteome chip probed with PI(3,4,5)P3 liposomes; details: liposome binding signal on yeast proteome chip, Cy3-streptavidin detection
PI(3,4)P2 liposomes = assay: Yeast proteome chip probed with PI(3,4)P2 liposomes; details: liposome binding signal on yeast proteome chip, Cy3-streptavidin detection
PI(4)P liposomes = assay: Yeast proteome chip probed with PI(4)P liposomes; details: liposome binding signal on yeast proteome chip, Cy3-streptavidin detection
[1] = tested on: phosphatidylcholine (PC) liposomes; assay: Yeast proteome chip probed with PC liposomes; details: liposome binding signal on yeast proteome chip, Cy3-streptavidin detection
How it was run: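 Binding of arrayed yeast proteins to sonicated PC liposomes, with or without 5% (w/w) phosphoinositide, is scored by streptavidin fluorescence on the biotinylated lipid tracer.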

B1: SPS1: yeast GST-HisX6 fusion protein on proteome chip (protein, UniProt P08458 1-490, looked up)
Sporulation-specific protein 1: MESKEISIRSRTPPSKLYSIQSCIGRGNFGDVYKAVDRVTQEIVAIKVVNLEHSDEDIELLAQEIFFLAELKSPLITNYIATMLEDVSMWIVMEYCGGGSCSDLLKRSYVNGLPEEKVSFIIHEVTLGLKYLHEQRKIHRDIKAANILLNEEGMVKLGDFGVSGHIRSTLKRDTFVGTPYWMAPEVVCCEVDGYNEKADIWSLGITTYELLKGLPPLSKYDPMKVMTNLPKRKPPKLQGPFSDAAKDFVAGCLVKTPADRPSAYNLLSFEFVKNITITNLKSDVDLIKQKKVQERYTKVPKYPLQNRLYKNSNTVRGKEFWNFESTRLSTTQISKEELSPITQDSPTSSLNMESPYLLHGQTVTPITNPSSSSFRKCTQPVFELDSGMDIDSGCPNAQAETEIVPLSNHNKKHKKNDIQALKIEKFDYLKNIVSHILNRMYDRARDDETRKYVNEMLKQFIKTEANVPGFNEVFIEEISLRIEAIKKGFV
modifications: GST-His6 fusion tag
notes: yeast GST-HisX6 fusion protein on proteome chip
PI(3)P (PI(3)P liposomes): 88.50
liposome binding in reverse membrane assay (six different liposomes): bound all five phosphoinositol-containing liposomes nearly equally
PI(4, 5)P2 (PI(4,5)P2 liposomes): 358.84
PI(3, 4, 5)P3 (PI(3,4,5)P3 liposomes): 389.70
PI(3, 4)P2 (PI(3,4)P2 liposomes): 1147.50
PI(4)P (PI(4)P liposomes): 246.92
PC [1]: 557.02
